A word on the Kd: it is the concentration at which binding is half-saturated.

The target of the test is MAN1 fragment from amino acids 658 to 911 (MAN1C) (human) (UniProt Q9Y2U8). Kind of test: SEC + NMR titration.
MAN1 fragment from amino acids 658 to 911 (MAN1C) (human), sequence (Q9Y2U8 658-911): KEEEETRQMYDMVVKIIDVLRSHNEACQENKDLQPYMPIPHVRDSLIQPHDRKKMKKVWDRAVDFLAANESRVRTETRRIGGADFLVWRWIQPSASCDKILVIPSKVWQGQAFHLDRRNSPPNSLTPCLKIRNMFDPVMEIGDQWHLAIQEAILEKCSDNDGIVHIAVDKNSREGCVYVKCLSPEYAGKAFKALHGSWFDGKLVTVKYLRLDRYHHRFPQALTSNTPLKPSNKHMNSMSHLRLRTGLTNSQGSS

For the substance “PPM1A (from UniProt P35813 1-382) (enzyme)”, the Kd fell in the range of 10 to 500 µM.

These data come from publication PMC3843637.
